± gives the standard deviation.
Assay: collision cross section of modified peptide (TIMS, N2, iRT-aligned); higher = larger / more extended gas-phase ion
Protocol: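 1/K0 was aligned run-wise to spiked iRT peptides and converted to CCS in N2 (Mason-Schamp). Values are the mean of 1-3 technical replicates for the most abundant feature at each charge state.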

[1] = charge state: 2, modification: Nitro (Y)
[2] = charge state: 3, modification: Nitro (Y)
[3] = charge state: 2, modification: Phospho (Y)
[4] = charge state: 3, modification: Phospho (Y)
[5] = charge state: 2, modification: Citrullination (R)
[6] = charge state: 3, modification: Citrullination (R)
[7] = charge state: 2, modification: Methyl (R)
[8] = charge state: 3, modification: Methyl (R)
[9] = charge state: 2, modification: Acetyl (K)
[10] = charge state: 2, modification: Biotin
[11] = charge state: 3, modification: Biotin
[12] = charge state: 2, modification: Butyryl
[13] = charge state: 2, modification: Crotonyl
[14] = charge state: 2, modification: Dimethyl (K)
[15] = charge state: 3, modification: Dimethyl (K)
[16] = charge state: 2, modification: Formyl
[17] = charge state: 2, modification: Glutarylation
[18] = charge state: 3, modification: Glutarylation
[19] = charge state: 2, modification: GlyGly (K)
[20] = charge state: 3, modification: GlyGly (K)
[21] = charge state: 2, modification: Malonyl
[22] = charge state: 3, modification: Malonyl
[23] = charge state: 2, modification: Methyl (K)
[24] = charge state: 3, modification: Methyl (K)
[25] = charge state: 2, modification: Propionyl
[26] = charge state: 2, modification: Succinyl
[27] = charge state: 3, modification: Succinyl
[28] = charge state: 2, modification: Trimethyl (K)
[29] = charge state: 3, modification: Trimethyl (K)
[30] = charge state: 2, modification: hydroxyisobutyryl
[31] = charge state: 3, modification: hydroxyisobutyryl
[32] = charge state: 3, modification: Acetyl (K)
[33] = charge state: 3, modification: Butyryl
[34] = charge state: 3, modification: Crotonyl
[35] = charge state: 3, modification: Formyl
[36] = charge state: 3, modification: Propionyl

AAGQPYEQHAK [_AAGQPY(Nitro (Y))EQHAK_]
collision cross section [1]: 375.04 ± 1.1 Å² | collision cross section [2]: 431.09 ± 1.1 Å²

AAGQPYEQHAK [_AAGQPY(Phospho (Y))EQHAK_]
collision cross section [3]: 368.83 ± 10 Å² | collision cross section [4]: 436.55 Å²

AAHGRGALAEAAR [_AAHGR(Citrullination (R))GALAEAAR_]
collision cross section [5]: 378.79 ± 0.65 Å² | collision cross section [6]: 458.38 ± 1.8 Å²

AAHGRGALAEAAR [_AAHGR(Methyl (R))GALAEAAR_]
collision cross section [7]: 401.51 ± 8.3 Å² | collision cross section [8]: 469.45 ± 1.5 Å²

AAINQKLIETGER [_AAINQK(Acetyl (K))LIETGER_]
collision cross section [9]: 403.07 ± 1 Å²

AAINQKLIETGER [_AAINQK(Biotin)LIETGER_]
collision cross section [10]: 426.96 ± 1.5 Å² | collision cross section [11]: 497.24 Å²

AAINQKLIETGER [_AAINQK(Butyryl)LIETGER_]
collision cross section [12]: 410.95 ± 1.7 Å²

AAINQKLIETGER [_AAINQK(Crotonyl)LIETGER_]
collision cross section [13]: 409.27 ± 0.81 Å²

AAINQKLIETGER [_AAINQK(Dimethyl (K))LIETGER_]
collision cross section [14]: 413.1 ± 1.4 Å² | collision cross section [15]: 468.56 ± 2.6 Å²

AAINQKLIETGER [_AAINQK(Formyl)LIETGER_]
collision cross section [16]: 399.86 ± 0.2 Å²

AAINQKLIETGER [_AAINQK(Gluratylation)LIETGER_]
collision cross section [17]: 412.05 ± 1.1 Å² | collision cross section [18]: 483.6 ± 2.4 Å²

AAINQKLIETGER [_AAINQK(GlyGly (K))LIETGER_]
collision cross section [19]: 412.96 ± 0.98 Å² | collision cross section [20]: 477.22 ± 1.3 Å²

AAINQKLIETGER [_AAINQK(Malonyl)LIETGER_]
collision cross section [21]: 404.84 ± 0.034 Å² | collision cross section [22]: 473.19 Å²

AAINQKLIETGER [_AAINQK(Methyl (K))LIETGER_]
collision cross section [23]: 414.21 ± 2.1 Å² | collision cross section [24]: 471.88 ± 4.4 Å²

AAINQKLIETGER [_AAINQK(Propionyl)LIETGER_]
collision cross section [25]: 404.63 ± 0.38 Å²

AAINQKLIETGER [_AAINQK(Succinyl)LIETGER_]
collision cross section [26]: 409.41 ± 0.25 Å² | collision cross section [27]: 475.95 ± 0.68 Å²

AAINQKLIETGER [_AAINQK(Trimethyl (K))LIETGER_]
collision cross section [28]: 420.64 ± 0.75 Å² | collision cross section [29]: 472.14 ± 3.7 Å²

AAINQKLIETGER [_AAINQK(hydroxyisobutyryl)LIETGER_]
collision cross section [30]: 409.76 ± 0.32 Å² | collision cross section [31]: 478.62 Å²

AAQASDLEKIHLDEK [_AAQASDLEK(Acetyl (K))IHLDEK_]
collision cross section [9]: 454.7 ± 2.5 Å² | collision cross section [32]: 495.59 ± 1.3 Å²

AAQASDLEKIHLDEK [_AAQASDLEK(Biotin)IHLDEK_]
collision cross section [11]: 515.52 Å²

AAQASDLEKIHLDEK [_AAQASDLEK(Butyryl)IHLDEK_]
collision cross section [12]: 463.03 ± 1.1 Å² | collision cross section [33]: 499.42 ± 2.9 Å²

AAQASDLEKIHLDEK [_AAQASDLEK(Crotonyl)IHLDEK_]
collision cross section [13]: 464.23 ± 0.82 Å² | collision cross section [34]: 499.02 ± 2.2 Å²

AAQASDLEKIHLDEK [_AAQASDLEK(Dimethyl (K))IHLDEK_]
collision cross section [15]: 503.12 ± 0.75 Å²

AAQASDLEKIHLDEK [_AAQASDLEK(Formyl)IHLDEK_]
collision cross section [16]: 452.43 ± 0.71 Å² | collision cross section [35]: 490.12 ± 2.1 Å²

AAQASDLEKIHLDEK [_AAQASDLEK(Gluratylation)IHLDEK_]
collision cross section [17]: 471.95 ± 1.5 Å² | collision cross section [18]: 503.34 ± 1 Å²

AAQASDLEKIHLDEK [_AAQASDLEK(GlyGly (K))IHLDEK_]
collision cross section [19]: 469.33 ± 0.94 Å² | collision cross section [20]: 508.49 ± 1.9 Å²

AAQASDLEKIHLDEK [_AAQASDLEK(Malonyl)IHLDEK_]
collision cross section [21]: 460.56 ± 1.1 Å² | collision cross section [22]: 500.48 Å²

AAQASDLEKIHLDEK [_AAQASDLEK(Methyl (K))IHLDEK_]
collision cross section [23]: 449.24 Å² | collision cross section [24]: 507.05 ± 2 Å²

AAQASDLEKIHLDEK [_AAQASDLEK(Propionyl)IHLDEK_]
collision cross section [36]: 496.94 Å²

AAQASDLEKIHLDEK [_AAQASDLEK(Succinyl)IHLDEK_]
collision cross section [26]: 468.29 ± 1.1 Å² | collision cross section [27]: 505.3 ± 1.6 Å²

AAQASDLEKIHLDEK [_AAQASDLEK(Trimethyl (K))IHLDEK_]
collision cross section [28]: 457.14 Å² | collision cross section [29]: 500.66 ± 1.6 Å²

AAQASDLEKIHLDEK [_AAQASDLEK(hydroxyisobutyryl)IHLDEK_]
collision cross section [30]: 466.52 ± 0.88 Å² | collision cross section [31]: 501.4 ± 2.8 Å²

AAYQAAIRGVGSAQSR [_AAYQAAIR(Citrullination (R))GVGSAQSR_]
collision cross section [5]: 418.72 ± 0.97 Å² | collision cross section [6]: 501.27 ± 7.8 Å²

AAYQAAIRGVGSAQSR [_AAYQAAIR(Methyl (R))GVGSAQSR_]
collision cross section [7]: 442.78 ± 1 Å² | collision cross section [8]: 510.48 ± 1.7 Å²

AEGYEVAHGGR [_AEGY(Nitro (Y))EVAHGGR_]
collision cross section [1]: 365.03 ± 0.17 Å² | collision cross section [2]: 442.95 ± 1.1 Å²

AEGYEVAHGGR [_AEGY(Phospho (Y))EVAHGGR_]
collision cross section [3]: 370.65 ± 0.064 Å² | collision cross section [4]: 440.52 Å²

AGPNASIISLKSDK [_AGPNASIISLK(Acetyl (K))SDK_]
collision cross section [9]: 408.51 ± 3 Å²

AGPNASIISLKSDK [_AGPNASIISLK(Biotin)SDK_]
collision cross section [10]: 431.71 ± 1.7 Å² | collision cross section [11]: 469.41 Å²

AGPNASIISLKSDK [_AGPNASIISLK(Butyryl)SDK_]
collision cross section [12]: 413.93 ± 1.1 Å²

AGPNASIISLKSDK [_AGPNASIISLK(Crotonyl)SDK_]
collision cross section [13]: 412.97 ± 0.55 Å²

AGPNASIISLKSDK [_AGPNASIISLK(Dimethyl (K))SDK_]
collision cross section [14]: 413.93 ± 1.1 Å² | collision cross section [15]: 484.65 ± 1.6 Å²

AGPNASIISLKSDK [_AGPNASIISLK(Formyl)SDK_]
collision cross section [16]: 404.66 ± 0.43 Å²

AGPNASIISLKSDK [_AGPNASIISLK(Gluratylation)SDK_]
collision cross section [17]: 416.83 ± 0.49 Å²

AGPNASIISLKSDK [_AGPNASIISLK(GlyGly (K))SDK_]
collision cross section [19]: 420.97 ± 0.85 Å² | collision cross section [20]: 488.88 ± 2 Å²

AGPNASIISLKSDK [_AGPNASIISLK(Malonyl)SDK_]
collision cross section [21]: 411.98 ± 0.71 Å²

AGPNASIISLKSDK [_AGPNASIISLK(Methyl (K))SDK_]
collision cross section [23]: 413.97 ± 1.5 Å² | collision cross section [24]: 479.63 ± 3.4 Å²

AGPNASIISLKSDK [_AGPNASIISLK(Propionyl)SDK_]
collision cross section [25]: 409.61 ± 0.38 Å²

AGPNASIISLKSDK [_AGPNASIISLK(Succinyl)SDK_]
collision cross section [26]: 414.91 ± 0.86 Å²

AGPNASIISLKSDK [_AGPNASIISLK(Trimethyl (K))SDK_]
collision cross section [28]: 422.03 ± 0.65 Å² | collision cross section [29]: 457.38 ± 2.4 Å²

AGPNASIISLKSDK [_AGPNASIISLK(hydroxyisobutyryl)SDK_]
collision cross section [30]: 415.63 ± 0.53 Å²

AGQKLIDVNHYAK [_AGQK(Acetyl (K))LIDVNHYAK_]
collision cross section [9]: 429.91 ± 1.7 Å² | collision cross section [32]: 479.89 ± 2.5 Å²

AGQKLIDVNHYAK [_AGQK(Biotin)LIDVNHYAK_]
collision cross section [10]: 451.79 ± 0.62 Å² | collision cross section [11]: 517.92 ± 3.1 Å²

AGQKLIDVNHYAK [_AGQK(Butyryl)LIDVNHYAK_]
collision cross section [12]: 434.25 ± 1.1 Å² | collision cross section [33]: 485.15 ± 2.9 Å²

AGQKLIDVNHYAK [_AGQK(Crotonyl)LIDVNHYAK_]
collision cross section [13]: 434.02 ± 0.33 Å² | collision cross section [34]: 485.3 ± 1.3 Å²

AGQKLIDVNHYAK [_AGQK(Dimethyl (K))LIDVNHYAK_]
collision cross section [15]: 472.93 ± 1.2 Å²

AGQKLIDVNHYAK [_AGQK(Formyl)LIDVNHYAK_]
collision cross section [16]: 428.61 ± 0.79 Å² | collision cross section [35]: 474.19 ± 2.1 Å²

AGQKLIDVNHYAK [_AGQK(Gluratylation)LIDVNHYAK_]
collision cross section [17]: 437.49 ± 0.96 Å² | collision cross section [18]: 489.6 ± 0.95 Å²

AGQKLIDVNHYAK [_AGQK(GlyGly (K))LIDVNHYAK_]
collision cross section [19]: 433.04 ± 1.4 Å² | collision cross section [20]: 485.98 ± 1.6 Å²

AGQKLIDVNHYAK [_AGQK(Malonyl)LIDVNHYAK_]
collision cross section [21]: 433.55 ± 0.56 Å² | collision cross section [22]: 477.49 ± 1.8 Å²

AGQKLIDVNHYAK [_AGQK(Methyl (K))LIDVNHYAK_]
collision cross section [23]: 421.24 ± 1.5 Å² | collision cross section [24]: 475.12 ± 2.7 Å²

AGQKLIDVNHYAK [_AGQK(Propionyl)LIDVNHYAK_]
collision cross section [25]: 432.1 ± 1.1 Å² | collision cross section [36]: 484.45 Å²

AGQKLIDVNHYAK [_AGQK(Succinyl)LIDVNHYAK_]
collision cross section [26]: 435.59 ± 1.1 Å² | collision cross section [27]: 483.35 ± 2.9 Å²

AGQKLIDVNHYAK [_AGQK(Trimethyl (K))LIDVNHYAK_]
collision cross section [29]: 474.3 ± 1.8 Å²

— the supplement of paper PMC10598134
